We go through three molecules from patent US20110059469A1 (UNIVERSITY OF TOKYO, published 2011).

The target in one test is T1, human CLDN4 (human, UniProt O14493 1-209).
T1 construct: also called hCLDN4
T1 sequence: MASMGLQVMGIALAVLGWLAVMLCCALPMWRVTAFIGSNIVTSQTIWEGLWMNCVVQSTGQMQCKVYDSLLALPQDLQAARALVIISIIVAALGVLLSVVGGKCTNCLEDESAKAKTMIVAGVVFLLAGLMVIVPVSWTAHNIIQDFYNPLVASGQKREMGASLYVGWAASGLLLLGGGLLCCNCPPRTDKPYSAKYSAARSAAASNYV
Description: flow cytometry on Ba/F3 cells forced to express human CLDN4. (In general: In flow cytometry, cells or beads pass a laser one at a time.)

The next test addresses T2, human CLDN9 (human, UniProt O95484 1-217).
T2 construct: also called hCLDN9
T2 sequence: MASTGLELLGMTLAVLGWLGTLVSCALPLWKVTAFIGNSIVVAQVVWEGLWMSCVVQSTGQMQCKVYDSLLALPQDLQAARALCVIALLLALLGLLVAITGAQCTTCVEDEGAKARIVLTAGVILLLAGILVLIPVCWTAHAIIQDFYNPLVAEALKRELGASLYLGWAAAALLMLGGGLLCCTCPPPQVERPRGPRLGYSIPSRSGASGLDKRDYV
Description: flow cytometry on Ba/F3 cells forced to express human CLDN9.

Numbering of substitutions follows the chain as printed.

B1: AE1-16 (antibody, V domains shown)
VH: EVQLQQSGPELVKPGASVKISCKASGYSFTGYFMNWVKQSHGKSLEWIGRINPYNGDTFYNQKFKGKATLTVDKSSNTAHMELRSLTSEDSAVYYCARVLFLDFDDPYLMDYWGQGTSVTVSS
VL: ENVLTQSPAIMSATLGEKVTMSCRATSNVKYMYWYQQKSGASPKLWIYYTSNLASGVPARFSGSGSGTSYSLTISSVEAADAATYYCQQFTSSPSTFGAGTKLELK
notes: also called anti-human CLDN6 monoclonal antibody AE1-16
Consider B1, for which the binding result with human CLDN4 and with human CLDN9 was “binds” each time.

B2: AE49-11 (antibody, IgG2b, V domains shown)
VH: B1 VH with N77S
VL: B1 VL
notes: also called AE49-11 antibody; original IgG2b antibody
In the case of B2, the binding result in the test with human CLDN4 and with human CLDN9 was “binds” each time.

B3: AB3-1 (antibody, V domains shown)
VH: EVQLQQSGPELVKPGGSMKISCKASGYSFTGYTMNWVKQSHGKNLEWIGLINPYNGGISYNQKFKDKATLTMDKSSSTAYMELLSLTSEDSAIYFCARDYRYEGFDYWGQGTLVTVSA
VL: QIVLTQSPAIMSASLGERVTMTCTASSVVISTYLHWYQQKPGSSPKLWIYSTSNLASGVPVRFSGSGSGTSYSLTISSMEAEDAATYYCHQYHRSPWTFGGGTKLEIK
notes: also called anti-human CLDN6 monoclonal antibody AB3-1
B3: the binding result with human CLDN9 is listed as “binds”.
